Experimental data reported in publication PMC3763809.

Legend:
[1] = molecular target: H3(1-132)-LEEGLG nucleosome, second Glu of the tail to Ala (Drosophila | human) (UniProt P02299); assay: ITC
[2] = molecular target: H3(1-132)-LEEGLG nucleosome, first Glu of the tail to Ala (Drosophila | human) (UniProt P02299); assay: ITC

CENP-C central region, CENP-C(444-537), sequence (Q03188 444-537): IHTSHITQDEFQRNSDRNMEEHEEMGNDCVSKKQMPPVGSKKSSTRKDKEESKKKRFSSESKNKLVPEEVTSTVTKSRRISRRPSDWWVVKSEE

factor of change of Kd against the H3(1-132)-LEEGLG nucleosome [1]: 10 fold
factor of change of Kd against the H3(1-132)-LEEGLG nucleosome [2]: 3 fold
Substance: CENP-C central region, CENP-C(444-537) (from UniProt Q03188 444-537) (domain or fragment)
